This is an account of results in the RNAGym collection of RNA variant scans (doi:10.7554/elife.80360).

B1: CPEB3 Ribozyme (parent)
chain: GGGGGCCACAGCAGAAGCGUUCACGUCGCGGCCCCUGUCAGAUUCUGGUGAAUCUGCGAAUUCUGCUGU

Variants of B1 are the subject of this data set. Briefly: self-cleavage, relative activity (ratio to wild type); higher = more cleavage; co-transcriptional.
Consider C39U C66A, for which the self-cleavage stood at 0.541.

Consider C39U C66U, for which the self-cleavage stood at 0.885.

With A40C C54U, the self-cleavage was 0.523.

A40C C54A: the self-cleavage is 0.244.

As to A40C U62A, the self-cleavage worked out at 0.385.

On to A40C U62C, for which the self-cleavage came out at 0.255.

Take A40C U62G: the self-cleavage was 0.352.

Turning to C39U A60G, the self-cleavage turned out to be 0.667.

Regarding C39U A60U, the self-cleavage amounted to 0.266.

For C39U A60C, the self-cleavage was found to be 0.341.

As for A40G U44G, the self-cleavage came to 0.843.

Regarding A40G U44C, the self-cleavage came to 0.485.

As to C39U G65U, the self-cleavage amounted to 0.498.

Consider C39U G65A, for which the self-cleavage stood at 0.56.

On to A40C A42C, for which the self-cleavage worked out at 0.26.

A40C A42G: the self-cleavage was determined as 0.482.

In the case of A40C A42U, the self-cleavage worked out at 0.363.

Consider A40C U69C, for which the self-cleavage turned out to be 0.965.

In the case of A40C U69A, the self-cleavage was found to be 0.865.

G41A A60C: the self-cleavage stood at 0.295.

With G41A A60U, the self-cleavage stood at 0.278.

Consider C39G G47A, for which the self-cleavage came to 0.996.

With C39G G47U, the self-cleavage was determined as 0.989.

In the case of C39G G47C, the self-cleavage was 0.986.

C39U U67C: the self-cleavage amounted to 0.882.

With C39U U67A, the self-cleavage was 0.902.

For the variant C39U U67G, the self-cleavage came out at 0.923.

Regarding C39G U61G, the self-cleavage was 0.597.

As to C39G U61A, the self-cleavage came out at 0.703.

Regarding A40G G47U, the self-cleavage was determined as 1.02.

On to A40G G47A, for which the self-cleavage came to 0.987.

For C39U U55G, the self-cleavage was 0.661.

For A40G U62C, the self-cleavage was 0.649.

Consider C39U U69C, for which the self-cleavage is 1.04.

In the case of C39G C54U, the self-cleavage was determined as 0.888.

For C39G C54A, the self-cleavage was found to be 0.561.

Regarding C39G C54G, the self-cleavage was 0.625.

In the case of C39G U67C, the self-cleavage turned out to be 0.93.

On to A40G A51U, for which the self-cleavage came to 0.891.

A40G A51C: the self-cleavage is 0.927.

For the variant C39A U62A, the self-cleavage turned out to be 0.549.

Regarding C39U A52U, the self-cleavage is 0.78.

C39U A52G: the self-cleavage came out at 0.948.

Take C39U A52C: the self-cleavage came out at 0.776.

On to C39G U46A, for which the self-cleavage amounted to 0.997.

Regarding C39G U46G, the self-cleavage worked out at 0.907.

Turning to C39U U46C, the self-cleavage turned out to be 0.822.

With C39U U46G, the self-cleavage was determined as 0.997.

Turning to C39U U49A, the self-cleavage stood at 0.971.

For the variant C39U U49G, the self-cleavage amounted to 0.975.

Regarding A40U A60C, the self-cleavage was found to be 0.235.

Take A40U A60U: the self-cleavage is 0.41.

For the variant C39G A52G, the self-cleavage was 0.917.

For the variant C39G A52U, the self-cleavage was 0.858.

Take C39G A52C: the self-cleavage stood at 0.89.

With A40G G58U, the self-cleavage was 0.963.

Turning to A40G G58C, the self-cleavage turned out to be 0.973.

With A40G G58A, the self-cleavage stood at 0.912.

As for A40U G68C, the self-cleavage turned out to be 0.876.

As for A40U G68U, the self-cleavage stood at 0.877.

For A40U G68A, the self-cleavage is 0.937.

As for C39G A40U, the self-cleavage was 0.644.

For the variant C39G A40C, the self-cleavage was found to be 0.606.

On to A40U U61G, for which the self-cleavage turned out to be 0.286.

For C39U G47C, the self-cleavage worked out at 0.957.

With C39G A60C, the self-cleavage amounted to 0.265.

On to C39G A60G, for which the self-cleavage turned out to be 0.794.

For the variant C39G A60U, the self-cleavage worked out at 0.354.

Turning to A40C U43C, the self-cleavage is 0.314.

Take A40C U43G: the self-cleavage was determined as 0.281.

As to A40C U43A, the self-cleavage came to 0.356.

With A40C G68A, the self-cleavage was 0.882.

With G41A G48A, the self-cleavage was 0.989.

In the case of G41A C54G, the self-cleavage was 0.861.

G41A C54U: the self-cleavage amounted to 0.961.

Regarding C39G C63U, the self-cleavage is 0.934.

As to C39G C63A, the self-cleavage was determined as 0.494.

As to A40U U43A, the self-cleavage is 0.306.

With A40U U43C, the self-cleavage was 0.485.

With A40U U67G, the self-cleavage amounted to 0.886.

For the variant A40U U67A, the self-cleavage is 0.776.

Consider A40U U67C, for which the self-cleavage worked out at 0.845.

Turning to C39G G65A, the self-cleavage was determined as 0.599.

As for A40C U67G, the self-cleavage is 0.744.

On to A40C U67A, for which the self-cleavage stood at 0.518.

On to C39U C63U, for which the self-cleavage amounted to 0.84.

Take C39U C63G: the self-cleavage amounted to 0.451.

C39U C63A: the self-cleavage stood at 0.54.

For the variant C39U U53C, the self-cleavage came to 0.382.

Take C39U U53G: the self-cleavage stood at 0.61.

Turning to A40C G47U, the self-cleavage is 0.905.

With A40C G47A, the self-cleavage was 0.791.

With A40C C66U, the self-cleavage turned out to be 0.443.

Consider A40C C66G, for which the self-cleavage was determined as 0.36.

Regarding A40C C66A, the self-cleavage turned out to be 0.232.

Take C39U C54A: the self-cleavage was found to be 0.526.

For the variant C39U C54U, the self-cleavage stood at 0.853.

In the case of C39U C54G, the self-cleavage came to 0.546.

As for A40C A59G, the self-cleavage was determined as 0.515.

Consider A40C A59C, for which the self-cleavage is 0.346.

With A40C U61A, the self-cleavage was 0.304.

In the case of A40C U61G, the self-cleavage is 0.192.

For the variant A40C U61C, the self-cleavage is 0.339.

For C39U G48U, the self-cleavage came to 0.941.

On to C39U G48A, for which the self-cleavage is 0.998.

In the case of A40C C63U, the self-cleavage amounted to 0.388.

With A40C C63G, the self-cleavage came to 0.315.

Take C39G A42C: the self-cleavage was found to be 0.553.

Turning to C39G A42U, the self-cleavage was 0.725.

For the variant C39G A42G, the self-cleavage was determined as 0.739.

In the case of A40U U49C, the self-cleavage came to 0.757.

Consider A40U U49G, for which the self-cleavage came out at 0.816.

As for A40U U49A, the self-cleavage was 0.922.

For the variant A40U C63G, the self-cleavage was 0.392.

Take A40U C63U: the self-cleavage came to 0.77.

As for C39U U61A, the self-cleavage was found to be 0.766.

Turning to C39U U61C, the self-cleavage is 0.435.

Turning to C39U U64C, the self-cleavage stood at 0.699.

For the variant C39U U64G, the self-cleavage turned out to be 0.733.

Take A40G C66A: the self-cleavage is 0.54.

Consider A40G C66U, for which the self-cleavage came out at 0.982.

In the case of A40G U69A, the self-cleavage came to 1.01.

As to A40G U69G, the self-cleavage amounted to 1.02.

A40G U69C: the self-cleavage was found to be 0.718.

For A40U C45A, the self-cleavage worked out at 0.629.

For A40U C45U, the self-cleavage amounted to 0.799.

With A40U C45G, the self-cleavage amounted to 0.744.

On to C39G U69C, for which the self-cleavage was determined as 1.05.

In the case of C39G U44C, the self-cleavage was 0.58.

Turning to C39G U44G, the self-cleavage worked out at 0.709.

Consider C39G U44A, for which the self-cleavage came out at 0.772.

As for C39U A40G, the self-cleavage was determined as 0.813.

In the case of C39U A40C, the self-cleavage is 0.756.

As for C39G G50C, the self-cleavage was 0.771.

For the variant C39G U53C, the self-cleavage came out at 0.516.

In the case of C39G U53A, the self-cleavage came out at 0.538.

For the variant C39G U53G, the self-cleavage amounted to 0.533.

With G41A C57A, the self-cleavage was 0.283.

As to G41A C57G, the self-cleavage came out at 0.299.

On to G41A C57U, for which the self-cleavage was found to be 0.368.

With A40G G56A, the self-cleavage was 0.949.

For the variant A40G G56U, the self-cleavage was 0.895.

For the variant A40G C54U, the self-cleavage amounted to 0.952.

On to G41A A52G, for which the self-cleavage is 0.716.

Regarding G41A A52U, the self-cleavage was determined as 0.683.

For C39U C57U, the self-cleavage was 0.37.

For A40C U49G, the self-cleavage is 0.658.

As to A40C U49C, the self-cleavage turned out to be 0.584.

As for A40C U49A, the self-cleavage came to 0.679.

In the case of C39U G68C, the self-cleavage turned out to be 0.97.

With C39U G68U, the self-cleavage came to 0.95.

As for A40C A52G, the self-cleavage turned out to be 0.583.

Regarding C39U U43C, the self-cleavage was found to be 0.687.

Consider A40G G48A, for which the self-cleavage was 1.

On to A40G G48C, for which the self-cleavage was determined as 0.98.

Take A40G G48U: the self-cleavage was determined as 0.969.

With A40U G41A, the self-cleavage is 0.537.

Take A40U G65U: the self-cleavage was found to be 0.405.

Take A40U G65A: the self-cleavage came out at 0.352.

As to A40U G65C, the self-cleavage is 0.304.

Turning to A40U A51G, the self-cleavage came to 0.842.

As to A40U A51C, the self-cleavage worked out at 0.564.

Consider A40U A51U, for which the self-cleavage stood at 0.61.

Consider C39U G50C, for which the self-cleavage was 0.744.

With C39U G50U, the self-cleavage was 0.895.

Turning to A40C G41A, the self-cleavage came to 0.333.

For the variant A40C G41C, the self-cleavage was determined as 0.324.
